The conditions of this data set: whole UniProt chain shown.
The mark [1] stands for this setting: Rattus norvegicus, pH 8, 25 °C, Urea, CD, NaH2PO4 25 mM/, NaCl 75 mM, reversible: Yes.
Setting [2] is: Rattus norvegicus, pH 8, 25 °C, Urea, Fluorescence, NaH2PO4 25 mM/, NaCl 75 mM, reversible: Yes.
The mark [3] stands for this setting: Pyrococcus furiosus (strain ATCC 43587 / DSM 3638 / JCM 8422 / Vc1), pH 7, 40 °C, GdnHCl, CD, Tris-HCl 20 mM, reversible: yes.
Setting [4] is: Pyrococcus furiosus (strain ATCC 43587 / DSM 3638 / JCM 8422 / Vc1), pH 7, 60 °C, GdnHCl, CD, Tris-HCl 20 mM, reversible: yes.
Where [5] appears, read: Rattus norvegicus, pH 7, 25 °C, Urea, CD, Sodium phosphate 25 mM, NaCl 75 mM, reversible: yes.
Setting [6] is: Rattus norvegicus, pH 7, 25 °C, Urea, Fluorescence, Sodium phosphate 25 mM, NaCl 75 mM, reversible: yes.
[7] abbreviates: Rattus norvegicus, pH 7, 27 °C, Urea, CD, Phosphate 10 mM.
[8] abbreviates: Rattus norvegicus, pH 7, 27 °C, Urea, Magnetic Relaxation Dispersion, Phosphate 10 mM.
The mark [9] stands for this setting: Rattus norvegicus, pH 7.2, 20 °C, GdnHCl, Fluorescence, Potassium phosphate 20 mM, reversible: yes.
The mark [10] stands for this setting: Rattus norvegicus, pH 7.4, 20 °C, GdnHCl, CD, Potassium phosphate 20 mM, reversible: yes.
Setting [11] is: Rattus norvegicus, pH 7.4, 20 °C, GdnHCl, Fluorescence, Potassium phosphate 20 mM, reversible: yes.
Where [12] appears, read: Rattus norvegicus, pH 9.6, 20 °C, GdnHCl, Fluorescence, Sodium pyrophosphate 20 mM, reversible: yes.
The mark [13] stands for this setting: Rattus norvegicus, pH 7.5, Thermal, CD, phosphate 10 mM, NaF 100 mM, reversible: yes.

B1: Gastrotropin wild type, P80020 (protein)
chain: MAFTGKYEFESEKNYDEFMKRLGLPDEVIERGRNFKIITEVQQDGENFTWSQSYSGGNIMSNKFTIGKECEMQTMGGKKFKATVKMEGGKVVADFPNYHQTSEVVGDKLVEISTIGDVTYERVSKRVA
With B1, the unfolding free energy is, setting by setting: under setting [1], 18.4 kJ/mol; under setting [2], 19.7 kJ/mol.

B2: Pyrrolidone-carboxylate peptidase wild type, O73944 (protein)
chain: MKVLVTGFEPFGGEKINPTERIAKDLDGIKIGDAQVFGRVLPVVFGKAKEVLEKTLEEIKPDIAIHVGLAPGRSAISIERIAVNAIDARIPDNEGKKIEDEPIVPGAPTAYFSTLPIKKIMKKLHERGIPAYISNSAGLYLCNYVMYLSLHHSATKGYPKMSGFIHVPYIPEQIIDKIGKGQVPPSMCYEMELEAVKVAIEVALEELL
As to B2, under setting [3], the denaturant m value was 4.66 kcal/mol/M, the “denaturant midpoint (higher = more stable)” value (“denaturant midpoint” below) was determined as 0.4 M and the unfolding free energy is 7.61 kJ/mol. Besides, under setting [4], the denaturant m value was 4.13 kcal/mol/M, the “denaturant midpoint” value is 3.2 M and the unfolding free energy is 54.4 kJ/mol.

B3: Fatty acid-binding protein, brain wild type, P55051 (protein)
chain: MVDAFCATWKLTDSQNFDEYMKALGVGFATRQVGNVTKPTVIISQEGGKVVIRTQCTFKNTEISFQLGEEFEETSIDDRNCKSVIRLDGDKLIHVQKWDGKETNCVREIKDGKMVVTLTFGDVVAVRCYEKA
For B3, the denaturant m value amounted to 1.04 kcal/mol/M under setting [5]; 1.13 kcal/mol/M under setting [6]; 1 kcal/mol/M under setting [7]; 0.88 kcal/mol/M under setting [8]; 5.33 kcal/mol/M under setting [10]; 3.82 kcal/mol/M under setting [11]. Moreover, the “denaturant midpoint” value runs as follows: under setting [5], 4.1 M; under setting [6], 4.24 M; under setting [7], 5.1 M; under setting [8], 6.5 M; under setting [9], 1.36 M; under setting [10], 1.32 M. Besides, the “denaturant midpoint” value is, setting by setting: under setting [11], 1.36 M; under setting [12], 1.41 M. The unfolding free energy came out at 17.9 kJ/mol under setting [5]; 20 kJ/mol under setting [6]; 21.8 kJ/mol under setting [9]; 29.5 kJ/mol under setting [10]; 21.8 kJ/mol under setting [11]; 24.5 kJ/mol under setting [1]. Moreover, the unfolding free energy came out at 22.1 kJ/mol under setting [2] and 23.4 kJ/mol under setting [12].

B4: Cytochrome c2 wild type, P00094 (protein)
chain: MKISLTAATVAALVLAAPAFAGDAAKGEKEFNKCKTCHSIIAPDGTEIVKGAKTGPNLYGVVGRTAGTYPEFKYKDSIVALGASGFAWTEEDIATYVKDPGAFLKEKLDDKKAKTGMAFKLAKGGEDVAAYLASVVK
With B4, the “denaturant midpoint” value (Rhodobacter capsulatus (strain ATCC BAA-309 / NBRC 16581 / SB1003), pH 7.5, 30 °C, GdnHCl, CD, Tris 20 mM) worked out at 1.54 M.

B5: Cytochrome b5 wild type, P00173 (protein)
chain: MAEQSDKDVKYYTLEEIQKHKDSKSTWVILHHKVYDLTKFLEEHPGGEEVLREQAGGDATENFEDVGHSTDARELSKTYIIGELHPDDRSKIAKPSETLITTVESNSSWWTNWVIPAISALVVALMYRLYMAED
As to B5, the Tm (in general, the temperature at which the thermal transition is half complete) (Rattus norvegicus, pH 7, Thermal, UV spectroscopy, Sodium phosphate 50 mM, reversible: Yes) came to 93.1 °C.

B6: Homeobox protein Nkx-2.1 wild type, P23441 (protein)
chain: MSMSPKHTTPFSVSDILSPLEESYKKVGMEGGGLGAPLAAYRQGQAAPPAAAMQQHAVGHHGAVTAAYHMTAAGVPQLSHSAVGGYCNGNLGNMSELPPYQDTMRNSASGPGWYGANPDPRFPAISRFMGPASGMNMSGMGGLGSLGDVSKNMAPLPSAPRRKRRVLFSQAQVYELERRFKQQKYLSAPEREHLASMIHLTPTQVKIWFQNHRYKMKRQAKDKAAQQQLQQDSGGGGGGGGGAGCPQQQQAQQQSPRRVAVPVLVKDGKPCQAGAPAPGAASLQGHAQQQAQQQAQAAQAAAAAISVGSGGAGLGAHPGHQPGSAGQSPDLAHHAASPAALQGQVSSLSHLNSSGSDYGAMSCSTLLYGRTW
Consider B6, for which the unfolding free energy (Rattus norvegicus, pH 7.5, 25 °C, Urea, CD, phosphate 10 mM, NaF 100 mM, reversible: yes) worked out at 5.27 kJ/mol. Under setting [13], the Tm is 42.8 °C and the unfolding free energy worked out at 6.02 kJ/mol.

B7: Parvalbumin alpha wild type, P02625 (protein)
chain: MSMTDLLSAEDIKKAIGAFTAADSFDHKKFFQMVGLKKKSADDVKKVFHILDKDKSGFIEEDELGSILKGFSSDARDLSAKETKTLMAAGDKDGDGKIGVEEFSTLVAES
For B7, the unfolding free energy (Rattus norvegicus, pH 7.74, 30 °C, Thermal, CD, piperazine 10 mM, KCl 200 mM) is 2.93 kJ/mol. The Tm (Rattus norvegicus, pH 7.74, Thermal, CD, piperazine 10 mM, KCl 200 mM) is 35 °C.

B8: Cytochrome b5 type B wild type, P04166 (protein)
chain: MATPEASGSGRNGQGSDPAVTYYRLEEVAKRNTAEETWMVIHGRVYDITRFLSEHPGGEEVLLEQAGADATESFEDVGHSPDAREMLKQYYIGDVHPNDLKPKDGDKDPSKNNSCQSSWAYWIVPIVGAILIGFLYRHFWADSKSS
With B8, the “denaturant midpoint” value (Rattus norvegicus, pH 7, 25 °C, GdmSCN, UV/visible spectrophotometer, MOPS 30mM) stood at 2.04 M. In addition, the Tm (Rattus norvegicus, pH 7, Thermal, UV/visible spectrophotometer, Potassium phosphate 50mM) was determined as 85.5 °C.

For the origin of these results see FireProtDB.
